The Kd is the free concentration of one partner at which half of the binding sites on the other are occupied at equilibrium, for simple one-to-one binding. In general, koff refers to a measure of how fast the partners let go of each other. Broadly, the kon is the rate constant with which the complex forms.

The record followed here is patent US20130195871A1 (AbbVie / Abbott, published 2013).

The target of one assay is T1, EGFR on the cell surface (human, UniProt P00533 25-1210).
T1 construct: whole, on cells
Put plainly: flow cytometry on cells, 2 ug/mL, N-terminal VD.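 Also: cells stained for 30 to 60 min on ice.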

The target of assay [1] is T2, Recombinant Human MSP Receptor ECD-His tag (human, UniProt Q04912 25-957).
T2 construct: extracellular domain; bought reagent; also called RON
Put plainly: SPR (Biacore). For orientation: SPR reads the build-up and loss of mass on a sensor chip optically.
Protocol: (§1) The BIACORE assay (Biacore, Inc, Piscataway, N.J.) determined the affinity of antibodies or DVD-Ig proteins with kinetic measurements of on-rate and off-rate constants. Binding of antibodies or DVD-Ig proteins to a target antigen (for example, a purified recombinant target antigen) was determined by surface plasmon resonance-based measurements with a Biacore® 1000 or 3000 instrument (Biacore AB, Uppsala. Sweden) using running HBS-EP (10 mM HEPES [pH 7.4], 150 mM NaCl, 3 mM EDTA, and 0.005% surfactant P20) at 25° C. […] For example, approximately 5000 RU of goat anti-mouse IgG, (Fcγ), fragment specific polyclonal antibody (Pierce Biotechnology Inc, Rockford, Ill.) diluted in 10 mM sodium acetate (pH 4.5) was directly immobilized across a CM5 research grade biosensor chip using a standard amine coupling kit according to manufacturer's instructions and procedures at 25 μg/ml. Unreacted moieties on the biosensor surface were blocked with ethanolamine. Modified carboxymethyl dextran surface in flowcell 2 and 4 was used as a reaction surface. Unmodified carboxymethyl dextran without goat anti-mouse IgG in flow cell 1 and 3 was used as the reference surface. For kinetic analysis, rate equations derived from the 1:1 Langmuir binding model were fitted simultaneously to association and dissociation phases of all eight injections (using global fit analysis) with the use of Biaevaluation 4.0.1 software. Purified antibodies or DVD-Ig proteins were diluted in HEPES-buffered saline for capture across goat anti-mouse IgG specific reaction surfaces. Antibodies or DVD-Ig proteins to be captured as a ligand (25 μg/ml) were injected over reaction matrices at a flow rate of 5 μl/minute. The association and dissociation rate constants, kₒₙ (M⁻¹s⁻¹) and koff (s⁻¹) were determined under a continuous flow rate of 25 μl/minute. Rate constants were derived by making kinetic binding measurements at different antigen concentrations ranging from 10-200 nM. The equilibrium dissociation constant (M) of the reaction between antibodies or DVD-Ig proteins and the target antigen was then calculated from the kinetic rate constants by the following formula: KD=koff/kₒₙ. Binding was recorded as a function of time and kinetic rate constants were calculated.

For assay [2], the target named is T2, Recombinant Human MSP Receptor ECD-His …. Put plainly: SPR (Biacore), C-terminal VD.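 Also: surface plasmon resonance with DVD-Ig proteins captured on an anti-IgG chip and recombinant antigen flowed over in HBS-EP buffer, Langmuir global fit, KD taken as koff/kon.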
Protocol: as §1
The target of another assay is T3, Recombinant Human IGF1R (human, UniProt P08069 31-932).
T3 construct: bought reagent
Put plainly: SPR (Biacore), N-terminal VD.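 Also: capture of antibodies or DVD-Ig proteins on an anti-mouse IgG chip surface, recombinant antigen injected at 10–200 nM in HBS-EP running buffer at 25 °C.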

Protocol for EGFR on the cell surface: Stable cell lines overexpressing a cell-surface antigen of interest or human tumor cell lines were harvested from tissue culture flasks and resuspended in phosphate buffered saline (PBS) containing 5% fetal bovine serum (PBS/FBS). Prior to staining, human tumor cells were incubated on ice with (100 μl) human IgG at 5 μg/ml in PBS/FCS. 1-5×10⁵ cells were incubated with antibody or DVD-Ig (2 μg/mL) in PBS/FBS for 30-60 minutes on ice. […] After 30 minutes incubation on ice, cells were washed twice and resuspended in PBS/FBS. Fluorescence was measured using a Becton Dickinson FACSCalibur (Becton Dickinson, San Jose, Calif.).
The geometric mean is the n root of the multiplication product of n fluorescent signals (a1×a2×a3 . . . an). With log-transformed data the geometric mean is used to normalize the weighting of the data distribution.
Protocol for Recombinant Human IGF1R: as §1

B1: DVD2304 (bispecific antibody)
VH: EVQLVESGGGLVQPGGSLRLSCAASGFSLTNYGVHWVRQAPGKGLEWLGVGWSGGNTDYNTPFTSRLTINKDNSKNTVYLQMNSLRAEDTAVYYCARALTWYDYEFAYWGQGTLVTVSSASTKGPEVQLVQSGAEVKKPGSSVKVSCKASGGTFSSYAISWVRQAPGQGLEWMGGIIPIFGTANYAQKFQGRVTITADKSTSTAYMELSSLRSEDTAVYYCARAPLRFLEWSTQDHYYYYYMDVWGKGTTVTVSS
VL: DILLTQSPGTLSLSPGERATLSCRASQSIYTNIHWYQQKPGQAPRLLIKYASESISGIPDRFSGSGSGTDFTLTISRLEPEDFAVYYCQQNLNWPTTFGQGTKLEIKRTVAAPSSELTQDPAVSVALGQTVRITCQGDSLRSYYATWYQQKPGQAPILVIYGENKRPSGIPDRFSGSSSGNTASLTITGAQAEDEADYYCKSRDGSGQHLVFGGGTKLTVL
notes: DVD-Ig, outer AB400 / inner AB075
For the molecule B1, the “GEO MEAN” value with EGFR on the cell surface came out at 512.

B2: DVD2298 (bispecific antibody)
VH: EVQLVESGGGLVQPGGSLRLSCAASGFSLTNYGVHWVRQAPGKGLEWLGVGWSGGNTDYNTPFTSRLTINKDNSKNTVYLQMNSLRAEDTAVYYCARALTWYDYEFAYWGQGTLVTVSSASTKGPEVQLVQSGGGLVKPGGSLRLSCAASGFTFSSYAMHWVRQAPGKGLEWVAVISYDGSNKYYADSVKGRFTISRDNSKNTLYLQMNSLRAEDTAVYYCARFSGWPNNYYYYGMDVWGQGTTVTVSS
VL: DILLTQSPGTLSLSPGERATLSCRASQSIYTNIHWYQQKPGQAPRLLIKYASESISGIPDRFSGSGSGTDFTLTISRLEPEDFAVYYCQQNLNWPTTFGQGTKLEIKRTVAAPDVVMTQSPLSLPVTPGEPASISCRSSQSLLHSNGFNYVDWYLQKPGQSPHLLIYFGSYRASGVPDRFSGSGSGTDFTLKISRVEAEDVGVYYCMQALQTPPWTFGQGTKVEIR
notes: DVD-Ig, outer AB400 / inner AB005
As for B2, in the assay with EGFR on the cell surface, the “GEO MEAN” value amounted to 400.

B3: DVD2346 (bispecific antibody)
VH: QVQLQESGPGLVKPSQTLSLTCTVSGYSISSDFAWNWIRQPPGKGLEWMGYISYSGNTRYQPSLKSRITISRDTSKNQFFLKLNSVTAADTATYYCVTAGRGFPYWGQGTLVTVSSASTKGPEVQLVQSGGGLVKPGGSLRLSCAASGFTFSSFAMHWVRQAPGKGLEWISVIDTRGATYYADSVKGRFTISRDNAKNSLYLQMNSLRAEDTAVYYCARLGNFYYGMDVWGQGTTVTVSS
VL: DIQMTQSPSSMSVSVGDRVTITCHSSQDINSNIGWLQQKPGKSFKGLIYHGTNLDDGVPSRFSGSGSGTDYTLTISSLQPEDFATYYCVQYAQFPWTFGGGTKLEIKRTVAAPEIVLTQSPGTLSVSPGERATLSCRASQSIGSSLHWYQQKPGQAPRLLIKYASQSLSGIPDRFSGSGSGTDFTLTISRLEPEDFAVYYCHQSSRLPHTFGQGTKVEIK
For the molecule B3, the “GEO MEAN” value with EGFR on the cell surface amounted to 24.1.

B4: DVD2213 (bispecific antibody)
VH: QVQLQESGPGLVKPSEILSLTCTVSGGSISSHYWSWVRQPPGKGLEWIGYIYYSGSTNYNPSLKSRVTISVDTSKNQFSLNLSSVTAADTAVYYCARIPNYYDRSGYYPGYWYFDLWGRGTLVTVSSASTKGPSVFPLAPEVQLVQSGGGLVKPGGSLRLSCAASGFTFSSYAMHWVRQAPGKGLEWVAVISYDGSNKYYADSVKGRFTISRDNSKNTLYLQMNSLRAEDTAVYYCARFSGWPNNYYYYGMDVWGQGTTVTVSS
VL: QAVLTQPSSLSAPPGASASLTCTLRSGFNVDSYRISWYQQKPGSPPQYLLRYKSDSDKQQGSGVPSRFSGSKDASANAGILLISGLQSEDEADYYCMIWHSSAWVFGGGTKLTVLRTVAAPDVVMTQSPLSLPVTPGEPASISCRSSQSLLHSNGFNYVDWYLQKPGQSPHLLIYFGSYRASGVPDRFSGSGSGTDFTLKISRVEAEDVGVYYCMQALQTPPWTFGQGTKVEIR
notes: DVD-Ig, outer AB034 / inner AB005
Consider B4, for which, in assay [1], the Kd stood at 18 nM.

B5: DVD2317 (bispecific antibody)
VH: EVQLVESGGGLVQPGGSLRLSCAASGFTFTDYTMDWVRQAPGKGLEWVADVNPNSGGSIYNQRFKGRFTLSVDRSKNTLYLQMNSLRAEDTAVYYCARNLGPSFYFDYWGQGTLVTVSSASTKGPEVQLVQSGGGLVKPGGSLRLSCAASGFTFSSYAMHWVRQAPGKGLEWVAVISYDGSNKYYADSVKGRFTISRDNSKNTLYLQMNSLRAEDTAVYYCARFSGWPNNYYYYGMDVWGQGTTVTVSS
VL: DIQMTQSPSSLSASVGDRVTITCKASQDVSIGVAWYQQKPGKAPKLLIYSASYRYTGVPSRFSGSGSGTDFTLTISSLQPEDFATYYCQQYYIYPYTFGQGTKVEIKRTVAAPDVVMTQSPLSLPVTPGEPASISCRSSQSLLHSNGFNYVDWYLQKPGQSPHLLIYFGSYRASGVPDRFSGSGSGTDFTLKISRVEAEDVGVYYCMQALQTPPWTFGQGTKVEIR
notes: DVD-Ig, outer AB080 / inner AB005
On to B5, for which, in assay [2], the binding result is listed as “no binding (tested: 10-200 nM)”.

B6: DVD2327 (bispecific antibody)
VH: EVQLLESGGGLVQPGGSLRLSCTASGFTFSSYAMNWVRQAPGKGLEWVSAISGSGGTTFYADSVKGRFTISRDNSRTTLYLQMNSLRAEDTAVYYCAKDLGWSDSYYYYYGMDVWGQGTTVTVSSASTKGPEVQLVQSGGGLVKPGGSLRLSCAASGFTFSSYAMHWVRQAPGKGLEWVAVISYDGSNKYYADSVKGRFTISRDNSKNTLYLQMNSLRAEDTAVYYCARFSGWPNNYYYYGMDVWGQGTTVTVSS
VL: DIQMTQFPSSLSASVGDRVTITCRASQGIRNDLGWYQQKPGKAPKRLIYAASRLHRGVPSRFSGSGSGTEFTLTISSLQPEDFATYYCLQHNSYPCSFGQGTKLEIKRTVAAPDVVMTQSPLSLPVTPGEPASISCRSSQSLLHSNGFNYVDWYLQKPGQSPHLLIYFGSYRASGVPDRFSGSGSGTDFTLKISRVEAEDVGVYYCMQALQTPPWTFGQGTKVEIR
notes: DVD-Ig, outer AB011 / inner AB005
On to B6, for which, in assay [2], the binding result was “no binding (tested: 10-200 nM)”. Besides, in the assay with Recombinant Human IGF1R, the Kd came out at 1.5 nM, the koff stood at 7e-05 s⁻¹ and the kon amounted to 46000 M⁻¹ s⁻¹.

B7: DVD2342 (bispecific antibody)
VH: QVQLQESGPGLVKPSQTLSLTCTVSGYSISSDFAWNWIRQPPGKGLEWMGYISYSGNTRYQPSLKSRITISRDTSKNQFFLKLNSVTAADTATYYCVTAGRGFPYWGQGTLVTVSSASTKGPEVQLVESGGGLVQPGGSLRLSCAASGFTFTDYTMDWVRQAPGKGLEWVADVNPNSGGSIYNQRFKGRFTLSVDRSKNTLYLQMNSLRAEDTAVYYCARNLGPSFYFDYWGQGTLVTVSS
VL: DIQMTQSPSSMSVSVGDRVTITCHSSQDINSNIGWLQQKPGKSFKGLIYHGTNLDDGVPSRFSGSGSGTDYTLTISSLQPEDFATYYCVQYAQFPWTFGGGTKLEIKRTVAAPDIQMTQSPSSLSASVGDRVTITCKASQDVSIGVAWYQQKPGKAPKLLIYSASYRYTGVPSRFSGSGSGTDFTLTISSLQPEDFATYYCQQYYIYPYTFGQGTKVEIK
Regarding B7, the “GEO MEAN” value in the assay with EGFR on the cell surface turned out to be 44.8.

B8: DVD2335 (bispecific antibody)
VH: QVQLQQWGAGLLKPSETLSLTCAVYGGSFSGYYWSWIRQPPGKGLEWIGEINHSGSTNYNPSLKSRVTISVETSKNQFSLKLSSVTAADTAVYYCARDKWTWYFDLWGRGTLVTVSSASTKGPQVQLQESGPGLVKPSEILSLTCTVSGGSISSHYWSWVRQPPGKGLEWIGYIYYSGSTNYNPSLKSRVTISVDTSKNQFSLNLSSVTAADTAVYYCARIPNYYDRSGYYPGYWYFDLWGRGTLVTVSS
VL: DIEMTQSPDSLAVSLGERATINCRSSQSVLYSSSNRNYLAWYQQNPGQPPKLLIYWASTRESGVPDRFSGSGSGTDFTLTISSLQAEDVAVYYCQQYYSTPRTFGQGTKVEIKRTVAAPQAVLTQPSSLSAPPGASASLTCTLRSGFNVDSYRISWYQQKPGSPPQYLLRYKSDSDKQQGSGVPSRFSGSKDASANAGILLISGLQSEDEADYYCMIWHSSAWVFGGGTKLTVL
notes: DVD-Ig, outer AB062 / inner AB034
B8: in assay [2], the Kd was found to be 39 nM, the koff was 0.0051 s⁻¹ and the kon turned out to be 130000 M⁻¹ s⁻¹.

B9: DVD2302 (bispecific antibody)
VH: EVQLVESGGGLVQPGGSLRLSCAASGFSLTNYGVHWVRQAPGKGLEWLGVGWSGGNTDYNTPFTSRLTINKDNSKNTVYLQMNSLRAEDTAVYYCARALTWYDYEFAYWGQGTLVTVSSASTKGPEVQLVESGGGLVQPGGSLRLSCAASGFTFTDYTMDWVRQAPGKGLEWVADVNPNSGGSIYNQRFKGRFTLSVDRSKNTLYLQMNSLRAEDTAVYYCARNLGPSFYFDYWGQGTLVTVSS
VL: DILLTQSPGTLSLSPGERATLSCRASQSIYTNIHWYQQKPGQAPRLLIKYASESISGIPDRFSGSGSGTDFTLTISRLEPEDFAVYYCQQNLNWPTTFGQGTKLEIKRTVAAPDIQMTQSPSSLSASVGDRVTITCKASQDVSIGVAWYQQKPGKAPKLLIYSASYRYTGVPSRFSGSGSGTDFTLTISSLQPEDFATYYCQQYYIYPYTFGQGTKVEIK
notes: DVD-Ig, outer AB400 / inner AB080
In the case of B9, the “GEO MEAN” value with EGFR on the cell surface was found to be 563.

B10: DVD2306 (bispecific antibody)
VH: EVQLVESGGGLVQPGGSLRLSCAASGFSLTNYGVHWVRQAPGKGLEWLGVGWSGGNTDYNTPFTSRLTINKDNSKNTVYLQMNSLRAEDTAVYYCARALTWYDYEFAYWGQGTLVTVSSASTKGPEVQLVQSGGGLVKPGGSLRLSCAASGFTFSSFAMHWVRQAPGKGLEWISVIDTRGATYYADSVKGRFTISRDNAKNSLYLQMNSLRAEDTAVYYCARLGNFYYGMDVWGQGTTVTVSS
VL: DILLTQSPGTLSLSPGERATLSCRASQSIYTNIHWYQQKPGQAPRLLIKYASESISGIPDRFSGSGSGTDFTLTISRLEPEDFAVYYCQQNLNWPTTFGQGTKLEIKRTVAAPEIVLTQSPGTLSVSPGERATLSCRASQSIGSSLHWYQQKPGQAPRLLIKYASQSLSGIPDRFSGSGSGTDFTLTISRLEPEDFAVYYCHQSSRLPHTFGQGTKVEIK
notes: DVD-Ig, outer AB400 / inner AB077
On to B10, for which, in the assay with EGFR on the cell surface, the “GEO MEAN” value came out at 546.

B11: DVD2325 (bispecific antibody)
VH: EVQLVQSGGGLVKPGGSLRLSCAASGFTFSSFAMHWVRQAPGKGLEWISVIDTRGATYYADSVKGRFTISRDNAKNSLYLQMNSLRAEDTAVYYCARLGNFYYGMDVWGQGTTVTVSSASTKGPEVQLVQSGGGLVKPGGSLRLSCAASGFTFSSYAMHWVRQAPGKGLEWVAVISYDGSNKYYADSVKGRFTISRDNSKNTLYLQMNSLRAEDTAVYYCARFSGWPNNYYYYGMDVWGQGTTVTVSS
VL: EIVLTQSPGTLSVSPGERATLSCRASQSIGSSLHWYQQKPGQAPRLLIKYASQSLSGIPDRFSGSGSGTDFTLTISRLEPEDFAVYYCHQSSRLPHTFGQGTKVEIKRTVAAPDVVMTQSPLSLPVTPGEPASISCRSSQSLLHSNGFNYVDWYLQKPGQSPHLLIYFGSYRASGVPDRFSGSGSGTDFTLKISRVEAEDVGVYYCMQALQTPPWTFGQGTKVEIR
notes: DVD-Ig, outer AB077 / inner AB005
On to B11, for which the binding result in assay [2] is given as “no binding (tested: 10-200 nM)”. In the assay with Recombinant Human IGF1R, the Kd was determined as 0.11 nM, the koff amounted to 6.6e-06 s⁻¹ and the kon came to 60000 M⁻¹ s⁻¹.
